The source of these data is a protein production outcome set (Wang et al. 2014).

A short description of the data set: label from the status in PepcDB records.

On to “MEIRMSKSSSKPVLVTCGLPYANGKAHIGHLRTYVPADIYARSLKKEGREVTFVCGSDTHGTPIVVNAEELGITPTELVEIYHKHFDETFKQLGIYFDAFGTTDDPENHNRTHDIVSRLIEKGYVYPKIIEIAYCPACNRFLPDRYVEGACPHCGETARGDECDQGCGKHLEPGELQNPVCTICGGPAEYRQQEHFFFKLSEFSNYLMDYLSKDLGGTTNAINYARGWVKQGLTDWCITRNLEWGVKFPGHEDLVVYVWVDAPIGYIAFTEEWAAQAGDSWEKFWKGDGEIVHFIGGDITYHHCIFWPAMLKGADYSVPTAVVASGMVKIEDRKFSKTRGYVVWVGEDYLDHGFHPDLLRYYLASYTSHTKELNFSWRVLQEKINAELVAVLGNFLYRTMLFAFKNYGEVPEGEVEPEIRKEIEKALVEVKAAMEEYEFKKAVDSAMALASFGNTYFQSHEPWKLIKEDRDACGQVVYNCLHLAKALSLIFEPVIPQTMEKAWKGLGHESDIHAALYEETLVPLKAGTKLAKPEILFTKLEDDRIGEMEEIANQRVAAANAKRNGVKGGEKEPSKSEGMGPSEASKASEKTVDVATAEEKVQVETLPVIDYEDFAKLDIRVGKVLLVEPVKKSKKLLRIEVDIGEEKPRQLVAGMASYYTPEELVGKSVIVLANLKPAKLCGVESNGMMLAADDGGAIVAALMPDKEIKSGSRIR”, for which the protein production result is “failed”.
In the case of “MEIRTFLERALKEDLGHGDLFERVLEKDFKATAFVRAKQEGVFSGEKYALELLEMTGIECVQTIKDKERFKPKDALMEIRGDFSMLLKVERTLLNLLQHSSGIATLTSRFVEALNSHKVRLLDTRKTRPLLRIFEKYSVLNGGASNHRLGLDDALMLKDTHLRHVKDLKSFLTHARKNLPFTAKIEIECESFEEAKNAMNAGADIVMCDNLSVLETKEIAAYRDAHYPFVLLEASGNISLESINAYAKSGVDAISVGALIHQATFIDMHMKMA” it was “failed”; in that of “MEISEQESVLEVKKRLGQFLQIPTSSITLFVSCWELIDGLDIEDYPIISHGTRIDLTVTPLFTAPSFIHAAVRKIHVTVKFPSKQFTVEVDRTETVSSLKDKIHIVENTPIKRMQLYYSGIELADDYRNLNEYGITEFSEIVVFLKSINRAKDVAPTSSSLFNGARIPVEIKDTCTISEMREGLQANKTLPRDEYIFVHKQRIMRENCSLRWHGVENGDTLFVFKGSISREGF”, “failed”; in that of “MEITLNSGFKMPIIGLGVWRMEKEELRDLIIDAIKIGYRHLDCAANYKNEAEVGEALTEAFTTGLVKREDLFITTKLWSSDHGHVIEACKDSLKKLQLDYLDLFLVHIPIATKHTGIGTTDSALGDDGVLDIDTTISLETTWHDMEKLVSMGLVRSIGISNYDVFLTRDCLAYSKIKPAVNQIETHPYFQRDSLVKFCQKHGICVTAHTPLGGATANAEWFGTVSCLDDPVLKDVAEKYKQTVAQIVLRWGIQRNTVVIPKTSKPERLEENFQVFDFQLSKEDMEVIKSMERNYRTHQTAKFWGIELYA”, “not failed”.
With “MEITLSKSLLIAVVLAPLLGSIIAGLFGRQVGRKGAQYVTILGVAVSCVLSCVTLYQLVEQGASPFNQNLYTFFDVGNYSAHVGFMVDRLTAMMMVVVTFVSLLVHIYTIGYMEEDPGYQRFFSYISLFTFSMLTLVMSNNFLQLFFGWEAVGLVSYLLIGFWFKRPTAVFANMKAFLVNRVGDFGFILGIAGVLLWFGSLDYSTVFANATTMAGAKVQLFAGHEWSVMTLICICLFIGAMGKSAQVPLHVWLPDSMEGPTPISALIHAATMVTAGIFMVARMSPLFELSETALNFILFIGATTAFFTGLIGIVQNDIKRVVAYSTLSQLGYMTVALGVSAYSAAVFHLMTHAFFKALLFLAAGSVIIGMHHEQDMRKMGGLRKYMKVTYWTSVIGTLALVGTPFFSGFYSKDTIIEAAAHHAHESHNWVATYGYWAVLGGVLVTSFYSFRLLFLTFHGKERFRDAHAHDVHSHHDSAHTDAEAQVHSHDAHAHDDHGHGHHGAHEPHESKWVVTLPLVLLAIPSIAIGFFTIGPMLFGTDWQGHHAVHAMKGQAVSFFTGIVDFYDPARDTVGALAEEFHGPVAFALHGMLAAPFFLTVAGLLLAALFYLWKPELATKSRKTFAPIVWLLENKYGFDKLWINGFAGGGVVLGKASRAVDTHVVDGAVVNGSARLIDLAANLLRRTQSGFLYHYAFAMIIGLIALLAVLMHFWR”, the protein production entry is recorded as “failed”.
Turning to “MEKAILITFLIATTSMVYQTIGQEEEISPISPESLAYEPAAAYEYDHELLSHMTTRRIKFLQDCSDKMSSKCNVEMTEGLIDDKPVSEDCCVNFLKIGRECHEGLMTFVFATYELKDVASAILPRSKRMWNKCVETTAAKIGAPLAFET”, the protein production result is listed as “failed”.
Consider “MEKEIKEKNLPLELTLVEASPRVGGKIQTVKKDGYIIERGPDSFLERKKSAPQLVKDLGLEHLLVNNATGQSYVLVNRTLHPMPKGAVMGIPTKIAPFVSTGLFSLSGKARAAMDFILPASKTKDDQSLGEFFRRRVGDEVVENLIEPLLSGIYAGDIDKLSLMSTFPQFYQTEQKHRSLILGMKKTRPQGSGQQLTAKKQGQFQTLSTGLQTLVEEIEKQLKLTKVYKGTKVTKLSHSGSCYSLELDNGVTLDADSVIVTAPHKAAAGMLSELPAISHLKNMHSTSVANVALGFPEGSVQMEHEGTGFVISRNSDFAITACTWTNKKWPHAAPEGKTLLRAYVGKAGDESIVDLSDNDIINIVLEDLKKVMNINGEPEMTCVTRWHESMPQYHVGHKQRIKELREALASAYPGVYMTGASFEGVGIPDCIDQGKAAVSDALTYLFS”, for which the protein production result is “failed”.
With “MEKEMARLAAFDMDGTLLMPDHHLGEKTLSTLARLRERDITLTFATGRHALEMQHILGALSLDAYLITGNGTRVHSLEGELLHRDDLPADVAELVLYQQWDTRASMHIFNDDGWFTGKENPALLQAFVYSGFRYQIIDVKKMPLGSVTKICFCGDHDDLTRLQIQLYEALGERAHLCFSATDCLEVLPVGCNKGAALTVLTQHLGLSLRDCMAFGDAMNDREMLGSVGSGFIMGNAMPQLRAELPHLPVIGHCRNQAVSHYLTHWLDYPHLPYSPE” the entry was “failed”; with “MEKGTLVEFRVQGDRRLGVVDRPDGKTRWFVVDERGQSHSLAPRQITYTVNGNTYKPSEIDRFLEEVKPYLDPSSLEVAWELLVEDGETVTPSQMANLLFSESNSAPSYAAHCLLSDDKLYFKQKGDAYEPRTAAQVADRKHQIEVEALKARGQQEFLTRVEQALQGEAVEWQRHDRQRLEGLEKYGTLLADIVKVGLNYDSLARAYPPPAPVLETMNMLGRPATPQGAFQLLVDLGWWSATENLFLRRSSIPVQFPSKVLEVAQQRLDFPPTDLDTNRLDLTHLKVYTVDDESTTEIDDGLSWEKLPDDRERLWVHIADPTRYLAPEDDLDLEARKRGSTVYLPTGMIPMFPEVLATGPMSLVQGRVCCALSFGVVLDGTGAVQDFTIHPSLIKPTYRLTYEDVDEMLELGVQAEPEIAAIATWATKRKSWRYNQGAISINMPEAMIKVKNDDISIDILDDSRSRQLVAEMMILAGEVAARYGQVHNIPLPFRGQPQPELPPEDELLRLPAGFVRACAMRRCMPKSEMSITPVRHAGLGLDTYTQATSPIRRYSDLLTHFQLKAHLRGEVPPFTAEELKEVMMTVTSTTQELTMVERQTNRYWALEYLRRHPEEIWQVTVLMWLREDSNLALILLEDLGLQLPMVFKRSVRLGEQVLVKVSISDPQKDVIQFQEIIYQEAQTAAN”, “failed”.
In the case of “MEKGVGFEKDMKTVSDGFVGGFFPVSTTKIAWKSRKRSALLNLDKAPEAVTEVTPEKNEITAMDTEKVGEPMTTTPLLSEKRKALFEPLEPITNLNGKRPTAADSLLPPPDFETANYPKGWLIGKKRKLVNVDVVESMRRIAVQEMNRKDREIDGLNEQLEEDSRCLEHLQLQLLQERSKRTEIERENTMLKEQVDMLVNMIQEDDEEGAEEP” it was “failed”; in that of “MEKISDLIECIAYEKNLPKEMISKVIQGCLLKMAQNELDPLARYLVVEENKQLQLIQLVEVLEDGDERLVNDPSKYISLSKAKEMDPSVKIKDELSYSLSLESMKQGAINRLFKDLQYQLEKALEDSHFEAFQKRLNSVLMGQVILVDHNQNTFIEIEQQFQGVLSMRHRIKGESFKVGDSIKAVLTQVKRTKKGLLLELSRTTPKMLEALLELEVPEIKDKEIEIIHCARIPGNRAKVSFFSHNARIDPIGAAVGVKGVRINAISNELNKENIDCIEYSNVPEIYITLALAPAKILSVEIKKIPIEELNAEEKESIQERFIVNNHLQKAKVRLLDIEKSKAIGKGGVNVCLASMLTGYHIEFETIPSVKENAENESEKETPKVGVEALESLFKNLEHHHHHH”, “not failed”; in that of “MEKKIVYFNKPGRENTEETLRLAVERAKELGIKHLVVASSYGDTAMKALEMAEGLEVVVVTYHTGFVREGENTMPPEVEEELRKRGAKIVRQSHILSGLERSISRKLGGVSRTEAIAEALRSLFGHGLKVCVEITIMAADSGAIPIEEVVAVGGRSRGADTAVVIRPAHMNNFFDAEIKEIICMPRNKR”, “not failed”.
With “MEKKVHYKMYKAGKKWVFVMLSTVALTGIMVMSGNIAKADAVAQSSTEQVAKIDTTSATTTSTQATAQVEKATNNVNESNAAQTSATTTTEQSSVNAGATSSSQNNKQATTTSVAASQNTSVANKDQVSSTQSSTTQNSEEPKVETPVNTADNASQKNVNGNWYLVDNNTGKNLTGFQEIKYQNKVVYYAPSNAQMQYGWQDINNNRYYFDTFDGAMTTGQKNINGNWYMFDAQGVLQTGFQRIESQNKTVYYSEDKDKLGQMQYGQKNIKGNWYNFDTYDGAMKTGFVTIPSQNKTVYYSEDKAKLGQMQYGKTKVNGKTYYFDTYDGAMKKGLTNINGNYYYFDNSGVMATNQKNINGNWYMFNDQGIMQTGFVHIPSQGKTVYYSKDKDKLGQMLYGQKNINGRWYNFDTYDGAMKTGFVYIPSQNKTVYYDENQSTLGQMKYGFQNINGKTYYLDTFDGSMKTGQKNINGNWYMFDDKGVMKVGFVTIPSQNKTVYYSEDKAKLGQMQYGKTGIKGKTYYFDTFDGAMKTGVFYNKETGTLQYYGNNGQMNYGNVVINGKVYAFDAAGNYLGKGNVTIDGHDYYLGNNNQVLVGFQKISNNTYYYNKDNGQKEYGQKNIDGSWYMFDDKTGIMKTGFVTIPSQNKTVYYGNNGQMQYGQRNIDGHWYMFDTYNGAMKTGLVYIPEQNKTVYYGSNGQMQYGVFRVGKITYTADHISGAIIGVYNDAEVIGQNPELPTGCEITAVTMMLRYAGANINKIQLANEMPRSNNGDYGFVGNPFSVTGWWVFPTGVAPVVNKHLGHSQVMTGASLESIKNKLLNGHLVVAWVANMNGFVNHAIALTGYNGNTLYYNNPWTARKESMSVSSFYTHWNADKQRALSY” the entry was “failed”; with “MEKLKSLIPEDLLQTVKSSSVDDLLSTSSSLLRLFLGLPQFHQAVSELANPELGCCGKNEETSLDLKRRGNHCFRSRDFDEALRLYSKALRVAPLDAIDGDKSLLASLFLNRANVLHNLGLLKESLRDCHRALRIDPYYAKAWYRRGKLNTLLGNYKDAFRDITVSMSLESSLVGKKQLQNELKAIPDYQNNQTLEHDEYRPSNDAGVDHLPSVQMEVKLRCVSTKEKGRGMVSECDIEEASVIHVEEPFSVVISKSCRETHCHFCLNELPADTVPCPSCSIPVYCSESCQIQSGGMLSTNEMDKHHIFQKLPDDIVEHIKGVTSADIYYFATDLIQEHQHECRGANWPAVLPSDAVLAGRIIMKLINQGKAATDLSNLQEILELSHTYSKMNPENKLELHLLSIVLIWCLSKSSCPNLSVCEASVTQTIILLSQIKVNSIAVARMKSSGDSFKCLPSGNISTKEPIQSLEQIRVGQALYKTGSLFNHSCKPNIHLYFLSRGLIMQTTEFVPTGCPLELSYGPEVGKWDCKNRIRFLEEEYFFHCRCRGCAQINISDLVINGYGCVNTNCTGVVLDSNVATCESEKLNHFFTAPRNVDQQVQMREKVYADVGEVASSLLSKPSGSLHIEPEICLKCGSRCDIENSHAEVNKAWNHMRRVEELMNSGRANYSVLSDCSRSIAVLRTFLHMYNKDIADAEDKVAQACYLAGELVDARKHCEASIKILKRLYEDEHVVIGNEMVKLASIQLASGDSSGAWDTTKRSSQIFSKYYGSHAETLFSYLPCLKQETAKAVNLSTS”, “failed”.
